Results as given in patent US5543392A, “Digestive tract cell activating agent of EGF and lactoferrin” (Morinaga Milk Industry Co., Ltd., priority 1992, dated 1996).

Columns and labels:
IEC18 cells [1] = experiment: Test 3: proliferation of small intestine epithelial cells (cell count by hemocytometer); assay type: cell-based, rat; conditions: single addition of 50 μg/ml; sixth and tenth days of culture; compared with control group and EGF single group
Procedure: ICE18 cells (the same ones as in the Test 1) were inoculated onto a 24-well culture plate by 5,000 cells per well, and were cultured for ten days with 1% FBS DMEM (0.5 ml) containing the following test subjects. During this test period, the medium was replaced on the third and the sixth days, and the number of cells was measured on the third, the sixth and the tenth days. The number of cells was counted by a hemocytometer after treating the cells with 0.25% trypsin solution and suspending them in the solution.
The test subjects included a sample added with nothing, a sample added with 10 ng/ml EGF, a sample added with 50 μg/ml bLf or bLf-Hy, and a sample added with 10 ng/ml EGF and 50 μg/ml bLf or bLf-Hy.

IEC18 cells [2] = experiment: Test 2: effect of simultaneous use of Lf or Lf-Hy and EGF on DNA synthesis (3H-thymidine incorporation); assay type: cell-based, rat; conditions: single use of bLf, various concentrations

B1: bLf: bovine lactoferrin (manufactured by Yukijirushi Nyugyo Company) (protein, UniProt P24627 20-708, looked up)
Lactotransferrin: APRKNVRWCTISQPEWFKCRRWQWRMKKLGAPSITCVRRAFALECIRAIAEKKADAVTLDGGMVFEAGRDPYKLRPVAAEIYGTKESPQTHYYAVAVVKKGSNFQLDQLQGRKSCHTGLGRSAGWIIPMGILRPYLSWTESLEPLQGAVAKFFSASCVPCIDRQAYPNLCQLCKGEGENQCACSSREPYFGYSGAFKCLQDGAGDVAFVKETTVFENLPEKADRDQYELLCLNNSRAPVDAFKECHLAQVPSHAVVARSVDGKEDLIWKLLSKAQEKFGKNKSRSFQLFGSPPGQRDLLFKDSALGFLRIPSKVDSALYLGSRYLTTLKNLRETAEEVKARYTRVVWCAVGPEEQKKCQQWSQQSGQNVTCATASTTDDCIVLVLKGEADALNLDGGYIYTAGKCGLVPVLAENRKSSKHSSLDCVLRPTEGYLAVAVVKKANEGLTWNSLKDKKSCHTAVDRTAGWNIPMGLIVNQTGSCAFDEFFSQSCAPGADPKSRLCALCAGDDQGLDKCVPNSKEKYYGYTGAFRCLAEDVGDVAFVKNDTVWENTNGESTADWAKNLNREDFRLLCLDGTRKPVTEAQSCHLAVAPNHAVVSRSDRAAHVKQVLLHQQALFGKNGKNCPDKFCLFKSETKNLLFNDNTECLAKLGGRPTYEEYLGTEYVTAIANLKKCSTSPLLEACAFLTR
number of cells (FIGS. 3 and 4) (IEC18 cells [1]): significantly increased | quantity of incorporated 3H-thymidine into DNA (FIG. 1) (IEC18 cells [2]): no effect
